Source: patent US12006368 (SURROZEN OPERATING, dated 2024)
Values belong to the binder of their own block, whether it stands above or below them.

How the values were obtained:
[1] = biological target: Fzd2 cysteine rich domain (CRD), C-terminally biotinylated (human, UniProt Q14332 24-155); assay: BLI; **=Kd 100-2000 nM
Description: (§1) Binding kinetics of antibody fragments to a variety of Fzd cysteine rich domain (CRD) protein targets (Fzd1, Fzd2, Fzd3, Fzd4, Fzd5, Fzd6, Fzd7, Fzd8, Fzd9 and/or Fzd10 CRDs) was determined by bio-layer interferometry (BLI) using Octet Red 96 (PALL ForteBio, Fremont, CA) instruments at 30° C., 1000 rpm with streptavidin (SA) biosensors. C-terminal biotinylated Fzd CRD recombinant protein was diluted to 20 nM in the running buffer (PBS, 0.05% Tween-20, 0.5% BSA, pH 7.2) and captured to the SA biosensor until coupling length reached 0.2 nm. Following capture of the Fzd CRD, the SA biosensor with captured biotinylated-Fzd CRD was dipped into wells containing the relevant antibody fragment at […] (0, 1.37, 4.12, 12.4, 37, 111.1, 333.3, 1000 nM) in running buffer, plus a well with only running buffer as a reference channel. […] was determined by global fitting, 1:1 binding model according to manufacturer recommended settings.
(§2) Table 1B provides clone IDs, the sequence identifier number of the antibody heavy chain fragment and/or light chain fragment, if present, for illustrative clones. In certain embodiments, the Fzd binding domain is an Fab or was derived from an Fab, so the heavy chain of Table 1B includes VH and CH1 sequence, but not CH2 or CH3 sequences. In certain embodiments, the Fzd binding domain is a VHH or sdAb® or was derived from a VHH or sdAb, so Table 1B includes the VHH domain. […] The Kd values were determined by BLI as described above. Blank entries denote that the binding to the specific Fzd receptor has not yet been determined. The entry of "n.b." indicates no binding.

[2] = biological target: T1, Fzd1 cysteine rich domain (CRD), C-terminally biotinylated (human, UniProt Q9UP38 101-230); assay: BLI; **=Kd 100-2000 nM
Description: as §1, §2

[3] = biological target: T1, Fzd1 cysteine rich domain (CRD), …; assay: BLI; *=Kd <100 nM
Description: as §1, §2

[4] = biological target: T1, Fzd1 cysteine rich domain (CRD), …; assay: BLI; **=Kd >100 nM
Description: as §1
One antibody fragment, clone 001S-A04, was selected for alanine-scanning mutagenesis of CDRs, and the respective Fzd1 binding affinities of the various mutants were determined by Octet BLI as described in Example 1.

[5] = biological target: Fzd7 cysteine rich domain (CRD), C-terminally biotinylated (human, UniProt O75084 36-165); assay: BLI; **=Kd 100-2000 nM
Description: as §1, §2

- Kd [1]: 100 to 2000 nM
B1: 005S-H05 (Fab, V domains shown)
VH: QVQLVQSGAEVKKPGASVKVSCKASGYTFTSYYMHWVRQAPGQGLEWMGRINPNSGGTNYAQKFQGRVTMTRDTSTSTVYMELSSLRSEDTAVYYCARVPDFWSGYLDYWGQGTLVTVSS
VL: DIQMTQSPSSLSASVGDRVTITCRASQGISSALAWYQQKPGKAPKLLIYAASSLQSGVPSRFSGSGSGTDFTLTISSLQPEDFATYYCQQTYSMPITFGQGTRLEIKR

- Kd [2]: 100 to 2000 nM
B2: 002S-B04 (VHH)
VHH: DVQLVESGGGLVQAGGSLRLSCAASGRTFSSYAMGWFRQAPGKEREFVAAISWSGGSTYYADSVKGRFTISRDNAKNTVYLQMNSLKPEDTAVYYCAAGPNYSWFMPSSSRLIWGQGTLVTVSS

- Kd [2]: 100 to 2000 nM
B3: 002S-D04 (VHH)
VHH: QVKLEESGGGLVQAGGSLRLSCAASGGTSSTYAMGWFRQAPGKEREFVAAINRSGGSTYYADSVKGRFTISRDNAKNTVYLQMNSLNPEDTAVYYCAAVFLSRNYEIQEYYRYQGQGTQVTVSS

- Kd [3]: < 100 nM
B4: 001S-B03 (Fab, V domains shown)
VH: QVQLQQWGAGLLKPSETLSLTCAVSGASFSGHYWTWIRQPPGKGLEWIGEIDHTGSTNYEPSLRSRVTISVDTSKNQFSLNLKSVTAADTAVYYCARGGQGGYDWGHYHGLDVWGQGTTVTVSS
VL: SYVLTQPPSVSVSPGQTASITCSGDKVGHKYASWYQQKPGQSPVLVIYEDSQRPSGIPVRFSGSNSGNTATLTISGTQAMDEADYYCQAWDSSTDVVFGGGTKLTVLG
notes: also called 1RC07

- Kd [3]: < 100 nM
B5: 002S-B01 (VHH)
VHH: EVQLVESGGGLVQAGGSLRLSCTASGSTFSNYAMGWFRQAPGKEREFVAAISWGGGSTFYSGSVKGRFTISRDSAKNTVHLQMDSLIPEDTAVYYCAAGPIARWYRGDMDYWGKGTLVTVSS

- Kd [3]: < 100 nM
B6: 002S-A04 (VHH)
VHH: AVQLVESGGGLVQAGGSLRLSCTASGRTFSSYAMGWFRQAPGKEREFVAAISWSGRSTYYADSVKGRFTISRDNAKNTVYLQMNSLKSEDTAAYYCAAGPIARWYRGDMDYWGKGTLVTVSS

- Kd [3]: < 100 nM
B7: 002S-C02 (VHH)
VHH: DVQLVESGGGLVQTGGSLRLSCVASGRTFRAYAMGWFRQAPGKEREFVSAISWSGGSTYYAGSVKGRFTISRDSAKNTVHLQMDSLIPEDTAVYYCAAGPIARWYRGDMDYWGKGTLVTVSS

- Kd [2]: 100 to 2000 nM
B8: 002S-G02 (VHH)
VHH: AVQLVDSGGGLMQAGGSLRLSCAASGRTFGTWAMGWFRQAPGKEREFVAAISYNGFSTYYSDAVKGRFTISRDNAKNTMYLQMDSLIPEDTAVYYCAAGPIARWYRGDMDYWGKGTQVTVSS

- KD [4]: > 100 nM
B9: 001S-A04 mutant VHT6A (Fab, V domains shown)
VH: EVQLVQSGAEVKKPGASVKVSCKASGYTFTSYGISWVRQAPGQGLEWMGWISAYNGNTNYAQKLQGRVTMTTDTSTSTAYMELRSLRSDDTAVYYCASSKEKAAYYYGMDVWGQGTTVTVSS
VL: QAVVLQEPSLSVSPGGTVTLTCGLSSGSVSTNYYPSWYQQTPGQAPRTLIYYTNTRSSDVPERFSGSIVGNKAALTITGAQPDDESVYFCLLYLGRGIWVFGGGTKLTVLG

- KD [4]: > 100 nM
B10: 001S-A04 mutant VHY7A (Fab, V domains shown)
VH: EVQLVQSGAEVKKPGASVKVSCKASGYTFTSYGISWVRQAPGQGLEWMGWISAYNGNTNYAQKLQGRVTMTTDTSTSTAYMELRSLRSDDTAVYYCASSKEKATAYYGMDVWGQGTTVTVSS
VL: QAVVLQEPSLSVSPGGTVTLTCGLSSGSVSTNYYPSWYQQTPGQAPRTLIYYTNTRSSDVPERFSGSIVGNKAALTITGAQPDDESVYFCLLYLGRGIWVFGGGTKLTVLG

- KD [4]: > 100 nM
B11: 001S-A04 mutant VLW9A (Fab, V domains shown)
VH: EVQLVQSGAEVKKPGASVKVSCKASGYTFTSYGISWVRQAPGQGLEWMGWISAYNGNTNYAQKLQGRVTMTTDTSTSTAYMELRSLRSDDTAVYYCASSKEKATYYYGMDVWGQGTTVTVSS
VL: QAVVLQEPSLSVSPGGTVTLTCGLSSGSVSTNYYPSWYQQTPGQAPRTLIYYTNTRSSDVPERFSGSIVGNKAALTITGAQPDDESVYFCLLYLGRGIAVFGGGTKLTVLG

- KD [4]: > 100 nM
B12: 001S-A04 mutant VHY9A (Fab, V domains shown)
VH: EVQLVQSGAEVKKPGASVKVSCKASGYTFTSYGISWVRQAPGQGLEWMGWISAYNGNTNYAQKLQGRVTMTTDTSTSTAYMELRSLRSDDTAVYYCASSKEKATYYAGMDVWGQGTTVTVSS
VL: QAVVLQEPSLSVSPGGTVTLTCGLSSGSVSTNYYPSWYQQTPGQAPRTLIYYTNTRSSDVPERFSGSIVGNKAALTITGAQPDDESVYFCLLYLGRGIWVFGGGTKLTVLG

- Kd [1]: 100 to 2000 nM
B13: 003S-E07 (Fab, V domains shown)
VH: QVQLVQSGAEVKKPGSSVKVSCKASGYTFTNNFMHWVRQAPGQGLEWMGWINPNSGGTKYAQKFQGRVTITADESTSTAYMELSSLRSEDTAVYYCARSVGEVGATMLGIGVWYWFDPWGQGTLVTVSS
VL: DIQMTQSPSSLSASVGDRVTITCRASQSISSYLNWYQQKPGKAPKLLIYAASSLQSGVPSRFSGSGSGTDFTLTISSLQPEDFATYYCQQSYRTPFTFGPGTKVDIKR
notes: also called R2M9

- Kd [3]: < 100 nM
- Kd [5]: 100 to 2000 nM
- Kd [1]: 100 to 2000 nM
B14: 001S-A03 (Fab, V domains shown)
VH: QLQLQESGPGLVKPSQTLSLTCTVSGGSISSGGYYWSWIRQHPGKGLEWIGYIYYSGSTYYNPSLKSRVTISVDKSKNQFSLKLSSVTAADTAVYYCARVRDYYDSSGYYYDYFDYWGQGTLVTVSS
VL: DIQLTQSPSSLSASVGDRVTITCRASRSISSYFNWYQQKPGKAPKLLIYAASSLQSGVPSRFSGSRSGTDFTLTISSLQPEDFATYYCQQADTFPPTFGQGTRLEIKR

- Kd [5]: 100 to 2000 nM
- Kd [2]: 100 to 2000 nM
- Kd [1]: 100 to 2000 nM
B15: 001S-B01 (Fab, V domains shown)
VH: QLQLQESGSGLVKPSQTLSLTCAVSGGSISSGGYSWSWIRQPPGKGLEWIGSIYHSGSTYYNPSLKSRLTISVDTSKNQFSLKLSSVTAADTAVYYCARFYYDILTGYSYFDYWGQGTLVTVSS
VL: DIVMTHTPLSLSVTPGEPASISCRSSRSLLDTDDGNTYLDWYLQKPGQSPQLLIHTLSHRASGVPDRFSGSGSGTDFTLKISRVEAEDVGVYYCMQSIQLPWTFGQGTKVEIKR

- Kd [5]: 100 to 2000 nM
- Kd [2]: 100 to 2000 nM
- Kd [1]: 100 to 2000 nM
B16: 001S-H02 (Fab, V domains shown)
VH: QVQLQESGPGLVKPSETLSLTCTVSGGSISSSSYYWGWIRQHPGKGLEWIGYIYYSGSTYYNPSLKSRVTISVDTSKNQFSLKLNSVTAADTAVYYCARATYGGDAFDIWGQGTMVTVSS
VL: QSVVTQPPSVSGAPGQRVTISCTRSSSNIGAGYDVHWYQQHPGTAPKLLIFGNSIRPSGVPDRFSGSKSGTSATLGITGLQTGDEADYYCGTWDSSLSAWVFGGGTKLTVLG

- Kd [5]: 100 to 2000 nM
- Kd [2]: 100 to 2000 nM
- Kd [1]: 100 to 2000 nM
B17: 001S-G02 (Fab, V domains shown)
VH: QVQLQESGPGLVKPSETLSLTCTVSGGAISGTSYFWGWIRQPPGKGLEWIGSIYYTGNTYYNPSLKSRLTVSVDTSKNQFSLNLNSVTAADTATYYCARIGIAVAAPVDHWGQGTLVTVSS
VL: EIVLTQSPATLSLSPGEGATLSCRASQSVGTYLTWYRQKPGQAPRLLIYDASNRATGIPARFSGSGAGTDFTLKISRVEAEDVGVYYCMQATQFPLTFGQGTKVEIKR
